Measured values reported in PMC11381654, “Structural insight into interleukin‐4Rα and interleukin‐5 inhibition by nanobodies from a bispecific antibody” (MedComm, 2020).

Target: human IL‐4Rα (human, UniProt P24394, N‐glycosylation sites (modelled in the crystal structure; positions not given))
Test: cell-based or functional assay

IC50 in the IL‐4‐induced TF‐1 cell proliferation assay (blocks IL‐4 with IL‐4Rα): ~0.15 nM
IC50 in the IL‐13‐induced TF‐1 cell proliferation assay (blocks IL‐13 with IL‐4Rα): ~0.15 nM
B1: dAb1 (VHH)
VHH: QVQLVESGGGLVQPGGSLRLSCAASGDFYCMAWFRQAPGKEREAVAAIRSGGRSTYYADSVKGRFTISRDNSKNTLYLQMNSLKAEDTAVYYCAVGVDGNCRNYWGQGTLVTVSS
